The nature of this data set: In vivo epifluorescent imaging of labelled C3a after intranasal administration. Also noted: species or system mouse. How it is done:
C3a (Complement Technologies) was labelled with VivoTag XL 680 fluorescent tag (Perkin Elmer) and purified according to manufacturer's instructions. A minimum of 10 μg of labelled C3a (0.4 mg/kg of body weight) was determined in a pilot experiment to be necessary for reliable detection of the fluorescent signal in live animals due to its significant attenuation by skull bones. Mice received 20 μl of PBS or 65 μM C3a-VivoTag (0.48 mg/kg of body weight) intranasally as described above. One and three hours later, mice were anesthetized with 2% isoflurane and imaged in the IVIS Lumina III Bio-imaging platform (Caliper Technologies). After imaging, mice were deeply anesthetized with isoflurane and killed by cervical dislocation for ex vivo imaging. Brains were quickly dissected from the skull and imaged using the same fluorescent filter sets. All mice and brains were imaged simultaneously with the PBS-treated control (acting as the tissue autofluorescence reference) placed in the middle, to minimize the potential confound of weaker illumination toward the sides of the observation field. Acquired images were processed and analysed using Living Image software (Caliper Technologies). Epifluorescent signal intensities are presented as radiant efficiency [(photons/sec/cm^2/sr)/(μW/cm^2)] after subtraction of the residual tissue autofluorescence signal defined by the PBS control.

Take “fluorescently labelled C3a: C3a (Complement Technologies) labelled with VivoTag XL 680 fluorescent tag”: the “time C3a is detectable in brain tissue after intranasal administration” value (20 μl of 65 μM C3a-VivoTag (0.48 mg/kg) intranasal, imaged at 1 and 3 h, live and ex vivo) was “at least 3 hours”. Also, the “delivery to the brain by intranasal administration” value (epifluorescent imaging in live animals) is recorded as “can be delivered to the mouse brain through intranasal administration”.

The values are drawn from patent US11266715B2, “C3A receptor agonists for use against ischemic brain injury, stroke, traumatic brain injury, spinal cord injury and neurodegenerative disorders” (priority 2016, dated 2022).
